The results in this text go back to the Immune Epitope Database (IEDB).

The target of one experiment is HLA-C*14:02. Description: IEDB peptide-MHC binding, purified MHC/direct/fluorescence; filed as Kd, often an IC50 or EC50 that approximates it; ≥ and ≤ were set here for values at or beyond the usual limits of such assays.
The next experiment addresses HLA-C*07:02. Described as above.
Another experiment deals with HLA-C*15:02. The experiment is described as above. Particulars: source organism: Salmonella enterica subsp. enterica serovar Paratyphi B str. SPB7.
Another experiment has as its target HLA-A*02:01. The description is as above.
A further experiment deals with HLA-B*27:05. The description is as above.
For the next experiment, the target named is HLA-B*44:02. The experiment is described as above.
A further experiment deals with HLA-A*03:01. Described as above.
A further experiment has as its target HLA-A*11:01. The description is as above.
In another experiment the target is HLA-B*15:01. Described as above.
The next experiment addresses HLA-A*69:01. The description is as above.
For another experiment, the target named is HLA-B*07:02. Described as above.
The next experiment has as its target HLA-B*40:01. Described as above.
In a further experiment the target is HLA-A*26:01. Described as above.
In another experiment the target is HLA-B*35:01. The experiment is described as above.
In the next experiment the target is HLA-A*31:01. Described as above.
The next experiment deals with HLA-B*58:01. The description is as above.
In experiment [1] the target is HLA-B*08:01. The experiment is described as above.
The next experiment addresses HLA-A*01:01. The description is as above.
In a further experiment the target is HLA-A*30:01. Described as above.
The next experiment has as its target HLA-A*24:03. The experiment is described as above.
Experiment [2] addresses HLA-B*08:01. Briefly: IEDB peptide-MHC binding, purified MHC/competitive/fluorescence; filed as Kd, often an IC50 or EC50 that approximates it; ≥ and ≤ were set here for values at or beyond the usual limits of such assays.
The mark [3] stands for this setting: source organism: Salmonella enterica subsp. enterica serovar Paratyphi B str. SPB7.
The mark [4] stands for this setting: source organism: Coxiella burnetii.
[5] abbreviates: source organism: Vibrio cholerae.
Setting [6] is: source organism: Yersinia pestis.
The mark [7] stands for this setting: source organism: Vaccinia virus Copenhagen.
Setting [8] is: source organism: Vibrio vulnificus.

Take SVFTGLLPF: the Kd in the experiment with HLA-C*14:02 (setting [3]) came to 560 nM; with HLA-C*07:02 (setting [3]) it was 507 nM; with HLA-C*15:02, 12.3 µM.

SYGNANVSF: the Kd with HLA-A*02:01 (setting [4]) was no less than 20 µM; with HLA-B*27:05 (setting [4]), no less than 20 µM; with HLA-B*44:02 (setting [4]), no less than 20 µM; with HLA-A*03:01 (setting [4]), no less than 20 µM; with HLA-A*11:01 (setting [4]), no less than 5 µM; in the experiment with HLA-B*15:01 (setting [4]), 1140 nM. Besides, the Kd was no less than 20 µM in the experiment with HLA-A*69:01 (setting [4]); no less than 20000 nM in the experiment with HLA-B*07:02 (setting [4]); no less than 20 µM with HLA-B*40:01 (setting [4]); no less than 20 µM with HLA-A*26:01 (setting [4]); 264 nM with HLA-B*35:01 (setting [4]); no less than 20 µM with HLA-A*31:01 (setting [4]). For the same sequence, the figures for the dissociation constant (Kd) in the experiment with HLA-B*58:01 (setting [4]), in the experiment with HLA-B*08:01 [1] (setting [4]) and with HLA-A*01:01 (setting [4]) were no less than 20 µM, no less than 20 µM and 1.81 µM, respectively.

For the sequence FPRSAERAG, the Kd with HLA-A*02:01 (setting [5]) is no less than 20 µM; in the experiment with HLA-B*27:05 (setting [5]), no less than 20 µM; in the experiment with HLA-B*44:02 (setting [5]), no less than 20 µM; with HLA-A*03:01 (setting [5]), no less than 20 µM; in the experiment with HLA-A*11:01 (setting [5]), no less than 20 µM; with HLA-B*15:01 (setting [5]), no less than 20000 nM. Further, the Kd was no less than 20 µM with HLA-A*69:01 (setting [5]); 201 nM with HLA-B*07:02 (setting [5]); no less than 20 µM with HLA-B*40:01 (setting [5]); no less than 20 µM with HLA-A*26:01 (setting [5]); no less than 10 µM with HLA-A*30:01 (setting [5]); 43.4 nM in the experiment with HLA-B*35:01 (setting [5]). Further, the Kd in the experiment with HLA-A*31:01 (setting [5]), with HLA-B*58:01 (setting [5]), in the experiment with HLA-B*08:01 [1] (setting [5]), in the experiment with HLA-A*24:03 (setting [5]) and with HLA-A*01:01 (setting [5]) was no less than 20 µM each time.

On to VPRVHNQPQ, for which the Kd was no less than 20 µM with HLA-A*02:01 (setting [6]); no less than 20 µM with HLA-B*27:05 (setting [6]); no less than 20 µM with HLA-B*44:02 (setting [6]); no less than 20 µM in the experiment with HLA-A*03:01 (setting [6]); no less than 20 µM with HLA-A*11:01 (setting [6]); no less than 20000 nM in the experiment with HLA-B*15:01 (setting [6]). The dissociation constant (Kd) was no less than 20 µM with HLA-A*69:01 (setting [6]); 43.7 nM with HLA-B*07:02 (setting [6]); no less than 20 µM with HLA-B*40:01 (setting [6]); no less than 20 µM in the experiment with HLA-A*26:01 (setting [6]); no less than 20 µM in the experiment with HLA-A*30:01 (setting [6]); no less than 20 µM in the experiment with HLA-A*31:01 (setting [6]). Moreover, the equilibrium dissociation constant (Kd) in the experiment with HLA-B*58:01 (setting [6]) was no less than 20 µM; with HLA-B*08:01 [1] (setting [6]), 5.69 µM; with HLA-A*24:03 (setting [6]), no less than 20 µM; in the experiment with HLA-A*01:01 (setting [6]), no less than 20 µM.

RYWYFAAEL: the dissociation constant (Kd) in the experiment with HLA-C*14:02 (setting [7]) amounted to 15 nM; in the experiment with HLA-C*07:02 (setting [7]) it was 1010 nM.

Take VNGVKGIQF: the Kd in the experiment with HLA-A*02:01 (setting [8]) is no less than 20 µM; with HLA-B*27:05 (setting [8]) it was no less than 20 µM; in the experiment with HLA-B*44:02 (setting [8]), no less than 20 µM; in the experiment with HLA-A*03:01 (setting [8]) it was no less than 20 µM; with HLA-A*11:01 (setting [8]), no less than 20 µM; with HLA-B*15:01 (setting [8]), no less than 20000 nM. The Kd with HLA-A*69:01 (setting [8]) is no less than 20 µM; with HLA-B*40:01 (setting [8]) it was no less than 20 µM; with HLA-A*26:01 (setting [8]), no less than 20 µM; with HLA-A*30:01 (setting [8]) it was no less than 20 µM; with HLA-B*35:01 (setting [8]), 1000 nM; with HLA-A*31:01 (setting [8]), no less than 20 µM. Moreover, the Kd with HLA-B*58:01 (setting [8]), with HLA-B*08:01 [1] (setting [8]), in the experiment with HLA-A*24:03 (setting [8]) and with HLA-A*01:01 (setting [8]) was no less than 20 µM in each case.

For EIFPNIKIY, the Kd with HLA-A*02:01 (setting [5]) was no less than 20 µM; with HLA-B*27:05 (setting [5]), no less than 20 µM; in the experiment with HLA-B*44:02 (setting [5]) it was no less than 20 µM; in the experiment with HLA-A*03:01 (setting [5]), no less than 20 µM; with HLA-A*11:01 (setting [5]), no less than 20 µM; in the experiment with HLA-B*15:01 (setting [5]), 465 nM. The Kd was no less than 20 µM in the experiment with HLA-A*69:01 (setting [5]); no less than 20000 nM in the experiment with HLA-B*07:02 (setting [5]); no less than 20 µM with HLA-B*40:01 (setting [5]); 0.0738 µM with HLA-A*26:01 (setting [5]); 164 nM with HLA-B*35:01 (setting [5]); no less than 20 µM with HLA-A*31:01 (setting [5]). For the same sequence, the dissociation constant Kd in the experiment with HLA-B*58:01 (setting [5]), in the experiment with HLA-B*08:01 [1] (setting [5]) and in the experiment with HLA-A*01:01 (setting [5]) was no less than 20 µM in each case.

Consider QLKYKYPAL, for which, in the experiment with HLA-B*08:01 [2] (source organism: Influenza A virus (A/Tokyo/1566/98(H3N2))), the Kd turned out to be 67.9 nM.

In the experiment with HLA-B*08:01 [2] (source organism: Escherichia coli O139:H28 str. E24377A), DLLKPNYAL had a Kd of 4020 nM.
